Test results taken from US20160144050A1 (PHAROSGEN, published 2016).
Primed or numbered codes have the meaning given here. No end group written: not given here. *: point of attachment. Hexanoyl(6-maleimido) = O=C1C=CC(=O)N1CCCCCC(=O)*; PABC′ = p-aminobenzylcarbamate

How the values were obtained:
[1] = biological target: T1, human serum albumin (HSA) (human, UniProt P02768 25-609); test: analytical HPLC; 100 µM conjugate with 700 µM purchased HSA in PBS, room temperature; covalent binding
T1 construct: also called commercially available human serum albumin; human serum albumin in human plasma
Experimental: A human serum albumin (HSA) solution was prepared in PBS at final concentration of 700 μM. […] The samples were subjected to analytical HPLC (see FIG. 21).

[2] = biological target: HSA-maleimide-KGDEVD-PABC-doxorubicin (SEQ ID NO: 28)

binding result [1]	Binder	HPLC monitored cleavage; liberation of free doxorubicin [2]
binds	K(Hexanoyl(6-maleimido))GDEVD-{PABC′-doxorubicin} (not fully specified (N-terminus), Peptide-drug prodrug conjugate) [maleimide-KGDEVD-PABC-doxorubicin (SEQ ID NO: 10)]	
	recombinant human caspase-3 (protein) SGISLDNSYKMDYPEMGLCIIINNKNFHKSTGMTSRSGTDVDAANLRETFRNLKYEVRNKNDLTREEIVELMRDVSKEDHSKRSSFVCVLLSHGEEGIIFGTNGPVDLKKITNFFRGDRCRSLTGKPKLFIIQACRGTELDCGIETDSGVDDDMACHKIPVEADFLYAYSTAPGYYSWRNSKDGSWFIQSLCAMLKQYADKLEFMHILTRVNRKVATEFESFSFDATFHAKKQIPCIVSMLTKELYFYH	The free doxorubicin was completely liberated from the HSA-maleimide-KGDEVD-PABC-doxorubicin (SEQ ID NO: 28) conjugate within 1 hour
